From paper PMC10157364 (2023)

T1: human MIF treated with 0.2% Proclin300 (oxMIF surrogate) (human, UniProt P14174 1-115, treated with 0.2% Proclin300 to transform MIF into an oxMIF surrogate)
T1 chain: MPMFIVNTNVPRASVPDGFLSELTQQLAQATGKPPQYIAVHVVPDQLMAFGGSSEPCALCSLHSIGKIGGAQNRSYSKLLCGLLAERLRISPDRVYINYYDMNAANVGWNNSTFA


What was measured:
[1] = biological target: T1, human MIF treated with 0.2% Proclin300 …; test: SPR
[2] = biological target: mouse MIF treated with 0.2% Proclin300 (oxMIF surrogate) (mouse, UniProt P34884 1-115, treated with 0.2% Proclin300 to transform MIF into an oxMIF surrogate); test: ELISA
[3] = biological target: T1, human MIF treated with 0.2% Proclin300 …; test: ELISA

| Kd [1] [nM] | EC50 [2] [nM] | EC50 [3] [nM] | Binder |
| --- | --- | --- | --- |
| 3.7 | 4.6 | 0.6 | ON103 (antibody, V domains shown) VH: EVQLQESGGGLVQPGGSLRLSCAASGFTFSIYSMNWVRQAPGKGLEWVSSIGSSGGTTYYADSVKGRFTISRDNSKNTLYLQMNSLRAEDTAVYYCAGSQYLYGMDVWGQGTTVTVSS VL: DIQMTQSPSSLSASVGDRVTITCRSSQRILTYLNWYQQKPGKAPKLLIYVGSHSQSGVPSRFRGSGSETDFTLTISGLQSEDSATYYCQQSFFTPLTFGGGTKVEIK |
| 6.1 | 5.2 | 0.7 | ON203 (antibody, V domains shown) VH: EVQLQESGGGLVQPGGSLRLSCAASGFTFSIYSMNWVRQAPGKGLEWVSSIGSSGGTTYYADSVKGRFTISRDNSKNTLYLQMNSLRAEDTAVYYCAGSQYLYGMDVWGQGTTVTVSS VL: DIQMTQSPSSLSASVGDRVTITCRSSQRIMTYLNWYQQKPGKAPKLLIYVGSHSQSGVPSRFRGSGSETDFTLTISGLQPEDSATYYCQQSFFTPLTFGGGTKVEIK |
| 3.5 | 3.1 | 0.6 | C0008 (antibody, V domains shown) VH: EVQLLESGGGLVQPGGSLRLSCAASGFTFSIYSMNWVRQAPGKGLEWVSSIGSSGGTTYYADSVKGRFTISRDNSKNTLYLQMNSLRAEDTAVYYCAGSQWLYGMDVWGQGTTVTVSS VL: DIQMTQSPSSLSASVGDRVTITCRSSQRIMTYLNWYQQKPGKAPKLLIFVASHSQSGVPSRFRGSGSETDFTLTISGLQPEDSATYYCQQSFWTPLTFGGGTKVEIK |
